According to US20170349625A1:

Assays:
[1] = system: T1, 5,6-carboxyfluorescein labeled Tub-tag peptide (CF-Tub-tag, peptide 13)
T1 sequence: VDSVEGEGEEEGEE

[2] = biological target: GBP4-Tub-tag (GFP-specific nanobody GBP4 with the Tub-tag sequence fused to its C-terminus); assay: cell-based or functional assay
GBP4-Tub-tag (GFP-specific nanobody GBP4 with the Tub-tag sequence fused to its C-terminus), sequence (heavy, as listed by the source): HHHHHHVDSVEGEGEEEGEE

| C-terminally modified GBP4 (3-N3-L-tyrosine incorporation followed by SPAAC to DBCO-biotin), 1:10 TTL/GBP4, 37 C, one hour [2] [%] | conversion of GBP4 (3-N3-L-tyrosine incorporation followed by SPAAC to DBCO-biotin), 1:5 TTL/GBP4, 37 C, one hour [2] [%] | conversion of GBP4, 1:5 TTL/GBP4, three hours [2] [%] | conversion of GBP4, 1:10 TTL/GBP4, three hours [2] [%] | Substance | conjugate yield after 120 min at 37 C, 3-N3-L-tyrosine (3), TTL:peptide 1:200, isocratic HPLC [1] | conjugate yield after 120 min at 37 C, 3-formyl-L-tyrosine (1), TTL:peptide 1:200, isocratic HPLC [1] |
| --- | --- | --- | --- | --- | --- | --- |
|  |  |  |  | tubulin tyrosine ligase (TTL, Canis lupus) | After 120 min of incubation at 37 °C the conjugate yield with 1 and 3 was 63% and 80%, respectively | After 120 min of incubation at 37 °C the conjugate yield with 1 and 3 was 63% and 80%, respectively |
| 71 | 82 | 99 | 88 | tubulin tyrosine ligase (TTL, Canis lupus) (enzyme) |  |  |
